Measurements: patent US8071348B2, “Protein tyrosine phosphatase substrate-trapping double mutant and uses thereof” (Albert Einstein College of Medicine of Yeshiva University, priority 2002, dated 2011)
[ ]: non-standard residue; d: D form. F2Pmp = N[C@@H](Cc1ccc(C(F)(F)P(=O)(O)O)cc1)C(=O)O

B1: Ac-Asp-Ala-Asp-Glu-F2Pmp-Leu-NH2 (peptide)
peptide: Ac-DADE[F2Pmp]L-NH2
notes: Synthetic hexapeptide printed in three-letter code; also called F2Pmp-containing peptide; non-hydrolyzable substrate analog

How the values were obtained:
[1] = target: T1, PTP1B/D181A/C215E, catalytic domain (residues 1 to 321) (human, UniProt P18031 1-321); assay: ITC, 25 C, pH 7.0
T1 construct: range 1-321; Used in vitro (ITC)
T1 sequence (looked up): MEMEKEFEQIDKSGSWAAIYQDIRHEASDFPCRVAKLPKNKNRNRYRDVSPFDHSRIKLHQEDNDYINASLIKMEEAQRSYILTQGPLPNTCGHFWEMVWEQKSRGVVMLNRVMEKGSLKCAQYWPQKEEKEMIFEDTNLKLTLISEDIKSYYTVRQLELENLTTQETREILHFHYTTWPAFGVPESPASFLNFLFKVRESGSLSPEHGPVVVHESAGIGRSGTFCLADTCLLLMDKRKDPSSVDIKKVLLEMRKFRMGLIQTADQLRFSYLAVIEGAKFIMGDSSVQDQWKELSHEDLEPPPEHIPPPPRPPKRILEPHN
Protocol: (§1) All isothermal titration calorimetry experiments were performed using an MCS Isothermal Titration Calorimetry System from Microcal Inc. (Northampton, Mass.). Experiments at pH 7.0 were conducted at 25° C., in 50 mM 3,3-dimethylglutarate buffer containing 1 mM DTT. The ionic strength of the buffer was adjusted to 0.15 M by addition of NaCl. Protein concentration in the calorimeter cell was 27-85 µM, while the ligand concentration in the syringe was 0.37-1 mM.
(§2) The PTP1B samples used in the isothermal titration calorimetry experiments were dialyzed completely against buffer. High-concentration stock solutions were prepared for ligands with distilled water, and adjusted to pH 7.0. […] Protein dilution during titration was determined by titration of buffer into the protein solution. […] The heat of ligand dilution was corrected by subtracting the average heat of injection after saturation.
(§3) A typical titration curve and binding isotherm for the binding of D181A/Q262A to Ac-Asp-Ala-Asp-Glu-F_2Pmp-Leu-NH_2 is shown in FIG. 3. From curve-fitting of the binding isotherms, the stoichiometry for the binding of the peptide to D181A/Q262A was determined to be 1:1.

[2] = target: T2, PTP1B/D181A/Q262A, catalytic domain (residues 1 to 321) (human, UniProt P18031 1-321); assay: ITC, 25 C, pH 7.0
T2 construct: range 1-321; Used in vitro (ITC, kinetics); also called PTP1B substrate-trapping double mutant
T2 sequence (looked up): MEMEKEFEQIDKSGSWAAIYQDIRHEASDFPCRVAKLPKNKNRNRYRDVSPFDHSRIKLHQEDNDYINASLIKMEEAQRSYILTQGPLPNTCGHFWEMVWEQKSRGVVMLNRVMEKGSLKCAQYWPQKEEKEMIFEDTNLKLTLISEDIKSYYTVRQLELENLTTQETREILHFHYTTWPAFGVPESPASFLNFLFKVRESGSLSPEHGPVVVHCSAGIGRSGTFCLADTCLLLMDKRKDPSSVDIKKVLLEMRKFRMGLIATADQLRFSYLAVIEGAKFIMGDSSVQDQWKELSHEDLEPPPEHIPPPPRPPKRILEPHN
Protocol: as §1, §2, §3

[3] = target: T3, Ac-Asp-Ala-Asp-Glu-F2Pmp-Leu-NH2 (Homo sapiens, UniProt P18031, C215S/Q262A); assay: Isothermal titration calorimetry, binding of PTP1B and mutants to F2Pmp peptide; settings: 25° C.; one peak absorbing heat, the other releasing heat
T3 construct: The catalytic domain of PTP1B (residues 1 to 321) was used for in vitro study; made in house; host or cells: E. coli (pT7-7 plasmids)
T3 sequence (P18031 1-321 C215S/Q262A): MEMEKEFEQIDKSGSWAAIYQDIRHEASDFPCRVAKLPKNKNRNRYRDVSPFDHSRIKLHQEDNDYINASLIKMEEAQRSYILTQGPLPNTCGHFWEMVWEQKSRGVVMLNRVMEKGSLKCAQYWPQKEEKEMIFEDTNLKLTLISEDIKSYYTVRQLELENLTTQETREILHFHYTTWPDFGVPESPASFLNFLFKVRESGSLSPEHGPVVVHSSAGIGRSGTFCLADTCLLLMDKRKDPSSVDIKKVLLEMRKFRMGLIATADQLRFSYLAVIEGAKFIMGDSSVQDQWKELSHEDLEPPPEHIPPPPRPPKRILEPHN
Protocol: FIG. 3 portrays calorimetric isothermal titration for the reaction of peptide Ac-Asp-Ala-Asp-Glu-F2Pmp-Leu-NH2 with PTP1B/D181A/Q262A. The upper graph depicts raw data for thirty 8-μl injections of the peptide (0.5 mM stock) into the isothermal cell containing 32 μM PTP1B/D181A/Q262A, at 4-min intervals and 25° C. Both the protein and the peptide were in 50 mM 3,3-dimethylglutarate buffer (I=0.15 M, pH 7.0) containing 1 mM DTT. The lower graph depicts an integration curve showing experimental points that were obtained by integration of the above peaks as plotted against the molar ratio of the peptide to PTP1B/D181A/Q262A within the reaction cell. The solid line corresponds to the best fit to the data according to the nonlinear, least-squares regression algorithm, ORIGIN (29).
as §1, with “Experiments at pH 7.0 were conducted at 25° C., in 50 mM 3,3-dimethylglutarate buffer containing 1 mM DTT.” left out, “μM,” for “µM,”
The PTP1B samples used in the isothermal titration calorimetry experiments were dialyzed completely against buffer. High-concentration stock solutions were prepared for ligands with distilled water, and adjusted to pH 7.0. Stock was diluted at least 26-fold with 50 mM 3,3-dimethylglutarate buffer before titration. Protein dilution during titration was determined by titration of buffer into the protein solution. […] The heat of ligand dilution was corrected by subtracting the average heat of injection after saturation.
The binding data were analyzed using ORIGIN software (29). Binding constant, K, and enthalpy change, ΔH, were used to calculate free energy change, ΔG, and entropy change, ΔS, according to equation [1]: −RTLnK=ΔG=ΔH−TΔS [1] where R is the gas constant and T is the absolute temperature.

[4] = tested on: EGFR^988-998 peptide, DADEpYLIPQQG; assay: Kinetic constants for PTP1B-catalyzed hydrolysis of pTyr-containing EGFR988-998 peptide; type: biochemical; settings: EGFR988-998 peptide as substrate
Description: The catalytic domain of PTP1B (residues 1 to 321) was used for in vitro study. PTP1B mutants, C215S, D181A, and Q262A, were described previously (9, 25, 26). PTP1B double mutants, D181A/C215S and C215S/Q262A, were generated by PCR reactions, according to the standard procedure of the Quick-Change™ site-directed mutagenesis kit (Stratagene), using pT7-7/PTP1B/C215S as a template. PTP1B double mutants, D181A/C215E and D181A/Q262A, were generated by similar PCR procedures, using pT7-7/PTP1B/D181A as a template. The recombinant wild-type and mutant PTP1Bs were expressed in E. coli, and purified to homogeneity as described (25, 27). Protein concentration was determined from absorbance measurement at 280 nm, using an absorbance coefficient of 1.24 for 1 mg/ml PTP1B.
All assays were performed at 25° C. in buffer (pH 7.0, ionic strength=0.15 M) containing 50 mM 3,3-dimethylglutarate and 1 mM EDTA. A continuous spectrophotometric assay, previously described (28), was employed to determine kcat and Km for the pTyr-containing peptides. The dephosphorylation reaction was monitored by either an increase in absorbance at 282 nm, or an increase in fluorescence at 305 nm. Fluorometric and absorbance determinations were performed on a Perkin-Elmer LS50B fluorometer and a Perkin-Elmer Lambda 14 spectrophotometer, respectively. The instruments were equipped with a water-jacketed cell holder, permitting maintenance of the reaction mixture at the desired temperature (25° C.).

EGF receptor = assay: Substrate protection: EGF receptor tyrosine phosphorylation in COS1 cells expressing PTP1B forms (anti-pTyr Western blot); type: cell-based, Monkey; settings: COS1 cell lysates, anti-pTyr immunoblot (FIG. 4)
Protocol: FIG. 4 sets forth Western blots (WB) that show the level of tyrosine phosphorylation in the epidermal growth factor receptor (EGFR) upon expression of the wild-type and mutant PTP1Bs (4 μg plasmid/60 mm dish) in COS1 cells. Samples (50 μg total protein) were taken from the lysates of COS1 cells transfected with 4 μg of pJ3H plasmids expressing HA-tagged wild-type PTP1B, D181A, C215S, D181A/Q262A, or D181A/C215S. These samples were loaded into each lane for SDS-PAGE electrophoresis, and transferred onto a nitrocellulose membrane. The proteins on the membrane were first immunoblotted with anti-pTyr HRP conjugate (upper panel). The membrane was then stripped and re-probed with anti-hemagglutinin (anti-HA) HRP conjugate (lower panel).
The hemagglutinin-tagged (HA-tagged) full-length human wild-type PTP1B in pJ3H expression vector was a gift from Dr. Chemoff (30). The HA-tagged PTP1B mutants, C215S, D181A, D181A/C215S, and D181A/Q262A, were generated by PCR reactions, according to the standard procedure of the Quick-Change™ site-directed mutagenesis kit (Stratagene), using pJ3H-HA-PTP1B as a template. All mutations were verified by DNA sequencing.
Monkey kidney COS1 cells (ATCC: CRL-1650) were maintained in Dulbecco's modified Eagle's minimum essential medium (DMEM), supplemented with 10% fetal bovine serum (Life Technologies, Inc.), penicillin (50 units/ml), streptomycin (50 μg/ml), and L-glutamine (2 mM) under a humidified atmosphere containing 5% CO2. In transient transfection experiments, COS1 cells were inoculated at a density of 2×10^5 cells/60-mm dish, and grown overnight in DMEM containing 10% fetal bovine serum. Transfection was performed using LipoTAXI^R according to the manufacturer's recommendations (Stratagene, Cedar Creek, Tex.). Each transfection assay included 4 μg of purified DNA mixed with LipoTAXI^R in a 1:5 DNA:lipid ratio per 60-mm dish of cells. Following transfection, the cells were exchanged to normal culture medium, and maintained for 44 to 48 h at 37° C. and 5% CO2. The efficiency of transfection, as assessed by 5-bromo-4-chloro-3-indolyl-β-D galactoside (X-Gal) staining of pCMV-β-gal-transfected (β-Gal staining kit, Invitrogen) COS cells, was 25%.
The transfected cells (treated with or without EGF) were lysed with “lysis buffer” containing 50 mM Tris-HC1 (pH 7.5), 5 mM EDTA, 150 mM NaCl, 10 mM sodium phosphate, 10 mM sodium fluoride, 5 mM iodoacetic acid, 1 mM benzamidine, 1% Triton X-100, 10 μg/ml leupeptin, and 5 μg/ml Aprotinin. Lysate protein concentration was estimated using Bio-Rad protein assay reagent (Bio-Rad, Hercules, Calif.).
For immunoprecipitation, 1 mg of cell lysate was immunoprecipitated overnight with 30 μl of agarose-conjugated anti-hemagglutinin antibody at 4° C. Immunocomplexes were washed four times with the cell lysis buffer, and boiled for 5 min in SDS-PAGE sample buffer. Proteins in the cell lysate were separated by 8% SDS-PAGE under reducing conditions, according to the method of Laemmli (31), followed by blotting onto nitrocellulose membranes (Protran, Schleicher & Schuell). The nitrocellulose membranes were blocked with 5% non-fat dry milk in Tris-buffered saline/Tween (TBST) buffer (20 mM Tris-HC1, 150 mM NaCl, 0.1% Tween-20; pH 7.6) for 1 h at 25° C.
Thereafter, blots were incubated overnight with primary antibodies diluted in TBST containing 5% non-fat dry milk at 4° C. […]

[5] = target: B1; assay: ITC; complex titration curve, no Kd obtained

For B1, the Kd [1] was 1300 nM and the Kd [2] was 6.8 nM.

B2: C215S/Q262A: PTP1B double mutant, Cys215 to Ser and Gln262 to Ala (protein, UniProt P18031 1-435, looked up, variant C215S Q262A)
Tyrosine-protein phosphatase …: MEMEKEFEQIDKSGSWAAIYQDIRHEASDFPCRVAKLPKNKNRNRYRDVSPFDHSRIKLHQEDNDYINASLIKMEEAQRSYILTQGPLPNTCGHFWEMVWEQKSRGVVMLNRVMEKGSLKCAQYWPQKEEKEMIFEDTNLKLTLISEDIKSYYTVRQLELENLTTQETREILHFHYTTWPDFGVPESPASFLNFLFKVRESGSLSPEHGPVVVHSSAGIGRSGTFCLADTCLLLMDKRKDPSSVDIKKVLLEMRKFRMGLIATADQLRFSYLAVIEGAKFIMGDSSVQDQWKELSHEDLEPPPEHIPPPPRPPKRILEPHNGKCREFFPNHQWVKEETQEDKDCPIKEEKGSPLNAAPYGIESMSQDTEVRSRVVGGSLRGAQAASPAKGEPSLPEKDEDHALSYWKPFLVNMCVATVLTAGAYLCYRFLFNSNT
For B2, the “shape of ITC titration curve” value [3] was “displayed two peaks” and the phosphatase activity [4] was “no measurable activities”.

B3: PTP1B/D181A/C215S, catalytic domain (residues 1 to 321) (enzyme, human, UniProt P18031 1-321, looked up)
chain: MEMEKEFEQIDKSGSWAAIYQDIRHEASDFPCRVAKLPKNKNRNRYRDVSPFDHSRIKLHQEDNDYINASLIKMEEAQRSYILTQGPLPNTCGHFWEMVWEQKSRGVVMLNRVMEKGSLKCAQYWPQKEEKEMIFEDTNLKLTLISEDIKSYYTVRQLELENLTTQETREILHFHYTTWPAFGVPESPASFLNFLFKVRESGSLSPEHGPVVVHSSAGIGRSGTFCLADTCLLLMDKRKDPSSVDIKKVLLEMRKFRMGLIQTADQLRFSYLAVIEGAKFIMGDSSVQDQWKELSHEDLEPPPEHIPPPPRPPKRILEPHN
With B3 the “level of pTyr in the EGF receptor / enhancement of EGF receptor phosphorylation” value (EGF receptor) was “comparable affinity to that of C215S”, the phosphatase activity [4] was “no measurable activities” and the binding stoichiometry [5] was 0.1.
